In publication PMC9634608, “Multi-crystal native-SAD phasing at 5 keV with a helium environment” (IUCrJ, 2022):

Target: the molecule itself
Experiment: crystal structure; native-SAD at 5 keV with a helium path, 18 microcrystals, space group R3, 2.6 Å; crystals grown by sitting drop at 4°C in 0.1 M HEPES pH 7.8, 1 mM ZnSO4, 27–29% PEG 400, protein in β-OG

B1: TehA (natural protein)
chain: MNITKPFPLPTGYFGIPLGLAALSLAWFHLENLFPAARMVSDVLGIVASAVWILFILMYAYKLRYYFEEVRAEYHSPVRFSFIALIPITTMLVGDILYRWNPLIAEVLIWIGTIGQLLFSTLRVSELWQGGVFEQKSTHPSFYLPAVAANFTSASSLALLGYHDLGYLFFGAGMIAWIIFEPVLLQHLRISSLEPQFRATMGIVLAPAFVCVSAYLSINHGEVDTLAKILWGYGFLQLFFLLRLFPWIVEKGLNIGLWAFSFGLASMANSATAFYHGNVLQGVSIFAFVFSNVMIGLLVLMTIYKLTKGQFFLK
notes: TehA, a bacterial homolog of the plant nitrate/chloride channel SLAC1; construct as described by Chen et al. (2010); The printed length of 314 residues may differ from the length of the UniProt entry; also called membrane protein TehA; source: E. coli BL21(DE3) pLysS, purified (IMAC, size-exclusion chromatography); not shown: His tag, C-terminal, cleaved
stoichiometry N: 3
